The values that follow come from US20230203178A1 (SICHUAN KELUN BIOTECH BIOPHARMACEUTICAL, published 2023).

Assay [1] concerns the target T1, BCMA expressed on target cells (CHO-K1-BCMA recombinant cell line; MM.1S; RPMI8226) (human, UniProt Q02223 1-184).
T1 sequence (looked up): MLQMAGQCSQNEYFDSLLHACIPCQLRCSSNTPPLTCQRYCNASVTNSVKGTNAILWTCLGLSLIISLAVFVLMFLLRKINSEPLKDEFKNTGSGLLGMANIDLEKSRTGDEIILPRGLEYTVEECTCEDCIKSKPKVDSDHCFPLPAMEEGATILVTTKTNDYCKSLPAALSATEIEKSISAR
Put plainly: cell-based or functional assay.

In assay [2] the target is T2, CD19 expressed on Nalm6 cells (UniProt P15391 20-556, limits assumed).
T2 sequence (looked up): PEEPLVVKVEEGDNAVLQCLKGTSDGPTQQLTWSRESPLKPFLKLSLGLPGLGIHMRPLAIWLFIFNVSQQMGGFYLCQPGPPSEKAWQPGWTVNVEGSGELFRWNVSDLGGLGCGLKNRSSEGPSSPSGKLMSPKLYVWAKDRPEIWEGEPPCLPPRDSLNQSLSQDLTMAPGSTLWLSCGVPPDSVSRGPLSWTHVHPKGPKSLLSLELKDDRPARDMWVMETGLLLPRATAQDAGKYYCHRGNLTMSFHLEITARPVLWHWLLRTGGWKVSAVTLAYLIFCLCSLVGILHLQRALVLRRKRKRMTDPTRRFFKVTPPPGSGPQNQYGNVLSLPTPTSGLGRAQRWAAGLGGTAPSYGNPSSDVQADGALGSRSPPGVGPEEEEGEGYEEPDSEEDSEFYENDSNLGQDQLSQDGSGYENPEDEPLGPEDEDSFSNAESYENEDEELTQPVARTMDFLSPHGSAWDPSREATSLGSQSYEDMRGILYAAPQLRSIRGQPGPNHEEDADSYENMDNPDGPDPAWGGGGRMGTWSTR
Kind of assay: cell-based or functional assay.

The next assay addresses T3, human CD19 (antigen) (human, UniProt P15391 20-291, limits assumed).
T3 sequence (looked up): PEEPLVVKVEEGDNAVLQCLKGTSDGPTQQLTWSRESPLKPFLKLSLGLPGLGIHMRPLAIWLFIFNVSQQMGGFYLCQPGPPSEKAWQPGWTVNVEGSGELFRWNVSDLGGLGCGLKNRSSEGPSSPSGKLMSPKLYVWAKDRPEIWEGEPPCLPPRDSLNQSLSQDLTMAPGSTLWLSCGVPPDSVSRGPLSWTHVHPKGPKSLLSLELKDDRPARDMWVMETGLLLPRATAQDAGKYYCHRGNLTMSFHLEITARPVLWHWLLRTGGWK
Put plainly: flow cytometry of lentivirus-transduced T cells labelled with antigen or anti-CD19 antibody, 48 h after transduction; percent positive cells. An excerpt:
(§1) The nucleic acid sequence encoding the CAR was expressed under the drive of a promoter, therefore the lentivirus-transfected T cells could be labeled with an antigen or anti-CD19 antibody and measured by flow cytometry, to reflect the expression level of the CAR on the surface of the T cells.
In general terms: In flow cytometry, cells or beads pass a laser one at a time.

The next assay deals with T4, human BCMA (antigen) (human, UniProt Q02223 1-54, limits assumed).
T4 construct: Antigen coupled to the CM5 chip in SPR; also called B-cell maturation antigen; TNFRF17
T4 sequence (looked up): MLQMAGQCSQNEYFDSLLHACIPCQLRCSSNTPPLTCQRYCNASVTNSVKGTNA
Put plainly: flow cytometry of lentivirus-transduced T cells labelled with antigen, 48 h after transduction; percent positive cells.
Excerpt: as §1

B1: TanCAR 10 (other)
chain: DIVMTQSPLSLPVTPGEPASISCRSSQSLVHSNGNTFLHWYLQKPGQSPQLLIYKVSNRFSGVPDRFSGSGSGTDFTLKISRVEAEDVGVYYCMQSTHVLTFGGGTKLEIKRAGGGGSGGGGSGGGGSQVQLVQSGAEVKKPGASVKVSCKASGYTFTDYLMHWVRQAPGQGLEWMGWINTETGEPTYADDFKGRVTMTRDTSTSTVYMELSSLRSEDTAVYYCAPSLYYGYSWFTYWGQGTLVTVSGGGGSGGGGSGGGGSGGGGSEVKLQESGPGLVAPSQSLSVTCTVSGVSLPDYGVSWIRQPPRKGLEWLGVIWGSETTYYNSALKSRLTIIKDNSKSQVFLKMNSLQTDDTAIYYCAKHYYYGGSYAMDYWGQGTSVTVSSGSTSGSGKPGSGEGSTKGDIQMTQTTSSLSASLGDRVTISCRASQDISKYLNWYQQKPDGTVKLLIYHTSRLHSGVPSRFSGSGSGTDYSLTISNLEQEDIATYFCQQGNTLPYTFGGGTKLEITESKYGPPCPPCPFWVLVVVGGVLACYSLLVTVAFIIFWVKRGRKKLLYIFKQPFMRPVQTTQEEDGCSCRFPEEEEGGCELRVKFSRSADAPAYKQGQNQLYNELNLGRREEYDVLDKRRGRDPEMGGKPRRKNPQEGLYNELQKDKMAEAYSEIGMKGERRRGKGHDGLYQGLSTATKDTYDALHMQALPPR
notes: Tandem bispecific chimeric antigen receptor on human T cells; built here from its parts without the signal peptide; also called TanCAR 10 CAR-T
As for B1, in assay [1], the “lysis rate of CHO-K1-BCMA-luc cells by CAR-T cells, ratio 0.25:1” value worked out at 17.1%; the “lysis rate of CHO-K1-BCMA-luc cells by CAR-T cells, ratio 0.5:1” value came to 36%; the “lysis rate of CHO-K1-BCMA-luc cells by CAR-T cells, ratio 1:1” value came to 57.9%. Besides, in assay [2], the “lysis rate of Nalm6-luc cells by CAR-T cells, ratio 0.25:1” value was 59.6%; the “lysis rate of Nalm6-luc cells by CAR-T cells, ratio 0.5:1” value was determined as 77.4%; the “lysis rate of Nalm6-luc cells by CAR-T cells, ratio 1:1” value worked out at 91.5%. Moreover, the “Positive rate of binding to CD19” value with human CD19 (antigen) was determined as 34.8%. In addition, the “Positive rate of binding to BCMA” value with human BCMA (antigen) amounted to 39.8%.

B2: TanCAR 06 (other)
chain: QVTLRESGPALVKPTQTLTLTCTFSGVSLPDYGVSWIRQPPGKALEWLAVIWGSETTYYNSALKSRLTISKDTSKNQVVLTMTNMDPVDTATYYCAKHYYYGGSYAMDYWGQGTTVTVSSGGGGSDIVMTQSPLSLPVTPGEPASISCRSSQSLVHSNGNTFLHWYLQKPGQSPQLLIYKVSNRFSGVPDRFSGSGSGTDFTLKISRVEAEDVGVYYCMQSTHVLTFGGGTKLEIKRAGGGGSGGGGSGGGGSGGGGSQVQLVQSGAEVKKPGASVKVSCKASGYTFTDYLMHWVRQAPGQGLEWMGWINTETGEPTYADDFKGRVTMTRDTSTSTVYMELSSLRSEDTAVYYCAPSLYYGYSWFTYWGQGTLVTVSGGGGSEIVLTQSPATLSLSPGERATLSCRASQDISKYLNWYQQKPGQAPRLLIYHTSRLHSGIPDRFSGSGSGTDFTLTISRLEPEDIAVYYCQQGNTLPYTFGQGTKLEITTTPAPRPPTPAPTIASQPLSLRPEACRPAAGGAVHTRGLDFACDIYIWAPLAGTCGVLLLSLVITLYCKRGRKKLLYIFKQPFMRPVQTTQEEDGCSCRFPEEEEGGCELRVKFSRSADAPAYKQGQNQLYNELNLGRREEYDVLDKRRGRDPEMGGKPRRKNPQEGLYNELQKDKMAEAYSEIGMKGERRRGKGHDGLYQGLSTATKDTYDALHMQALPPR
notes: Tandem (looped) bispecific chimeric antigen receptor on human T cells; built here from its parts without the signal peptide; also called TanCAR 06 CAR-T
As for B2, in assay [1], the “lysis rate of CHO-K1-BCMA-luc cells by CAR-T cells, ratio 0.25:1” value turned out to be 31.9%; the “lysis rate of CHO-K1-BCMA-luc cells by CAR-T cells, ratio 0.5:1” value was 48.3%; the “lysis rate of CHO-K1-BCMA-luc cells by CAR-T cells, ratio 1:1” value is 78.4%; the “lysis rate of CHO-K1-BCMA-luc cells by CAR-T cells, ratio 2:1” value came out at 92.9%. Besides, in assay [2], the “lysis rate of Nalm6-luc cells by CAR-T cells, ratio 0.25:1” value amounted to 68.3%; the “lysis rate of Nalm6-luc cells by CAR-T cells, ratio 0.5:1” value came out at 62.9%; the “lysis rate of Nalm6-luc cells by CAR-T cells, ratio 1:1” value turned out to be 88.9%; the “lysis rate of Nalm6-luc cells by CAR-T cells, ratio 2:1” value turned out to be 95.5%. The “Positive rate of binding to CD19” value in the assay with human CD19 (antigen) was 16.4%. Further, the “Positive rate of binding to BCMA” value with human BCMA (antigen) worked out at 13.3%.

B3: TanCAR 08 (other)
chain: DIVMTQSPLSLPVTPGEPASISCRSSQSLVHSNGNTFLHWYLQKPGQSPQLLIYKVSNRFSGVPDRFSGSGSGTDFTLKISRVEAEDVGVYYCMQSTHVLTFGGGTKLEIKRAGGGGSGGGGSGGGGSQVQLVQSGAEVKKPGASVKVSCKASGYTFTDYLMHWVRQAPGQGLEWMGWINTETGEPTYADDFKGRVTMTRDTSTSTVYMELSSLRSEDTAVYYCAPSLYYGYSWFTYWGQGTLVTVSGGGGSGGGGSGGGGSGGGGSQVTLRESGPALVKPTQTLTLTCTFSGVSLPDYGVSWIRQPPGKALEWLAVIWGSETTYYNSALKSRLTISKDTSKNQVVLTMTNMDPVDTATYYCAKHYYYGGSYAMDYWGQGTTVTVSSGSTSGSGKPGSGEGSTKGEIVLTQSPATLSLSPGERATLSCRASQDISKYLNWYQQKPGQAPRLLIYHTSRLHSGIPDRFSGSGSGTDFTLTISRLEPEDIAVYYCQQGNTLPYTFGQGTKLEITTTPAPRPPTPAPTIASQPLSLRPEACRPAAGGAVHTRGLDFACDIYIWAPLAGTCGVLLLSLVITLYCKRGRKKLLYIFKQPFMRPVQTTQEEDGCSCRFPEEEEGGCELRVKFSRSADAPAYQQGQNQLYNELNLGRREEYDVLDKRRGRDPEMGGKPRRKNPQEGLYNELQKDKMAEAYSEIGMKGERRRGKGHDGLYQGLSTATKDTYDALHMQALPPR
notes: Tandem bispecific chimeric antigen receptor on human T cells; built here from its parts without the signal peptide; also called TanCAR 08 CAR-T
Turning to B3, in assay [1], the “lysis rate of CHO-K1-BCMA-luc cells by CAR-T cells, ratio 0.25:1” value was determined as 12.3%; the “lysis rate of CHO-K1-BCMA-luc cells by CAR-T cells, ratio 0.5:1” value is 38.4%; the “lysis rate of CHO-K1-BCMA-luc cells by CAR-T cells, ratio 1:1” value turned out to be 65.9%. Further, in assay [2], the “lysis rate of Nalm6-luc cells by CAR-T cells, ratio 0.25:1” value worked out at 65.9%; the “lysis rate of Nalm6-luc cells by CAR-T cells, ratio 0.5:1” value was 83.8%; the “lysis rate of Nalm6-luc cells by CAR-T cells, ratio 1:1” value was 92.2%. In addition, the “Positive rate of binding to CD19” value in the assay with human CD19 (antigen) was determined as 24.4%. Moreover, the “Positive rate of binding to BCMA” value with human BCMA (antigen) was determined as 28.5%.

B4: TanCAR 05 (other)
chain: DIVMTQSPLSLPVTPGEPASISCRSSQSLVHSNGNTFLHWYLQKPGQSPQLLIYKVSNRFSGVPDRFSGSGSGTDFTLKISRVEAEDVGVYYCMQSTHVLTFGGGTKLEIKRAGGGGSQVQLVQSGAEVKKPGASVKVSCKASGYTFTDYLMHWVRQAPGQGLEWMGWINTETGEPTYADDFKGRVTMTRDTSTSTVYMELSSLRSEDTAVYYCAPSLYYGYSWFTYWGQGTLVTVSGGGGSGGGGSGGGGSGGGGSQVTLRESGPALVKPTQTLTLTCTFSGVSLPDYGVSWIRQPPGKALEWLAVIWGSETTYYNSALKSRLTISKDTSKNQVVLTMTNMDPVDTATYYCAKHYYYGGSYAMDYWGQGTTVTVSSGGGGSEIVLTQSPATLSLSPGERATLSCRASQDISKYLNWYQQKPGQAPRLLIYHTSRLHSGIPDRFSGSGSGTDFTLTISRLEPEDIAVYYCQQGNTLPYTFGQGTKLEITTTPAPRPPTPAPTIASQPLSLRPEACRPAAGGAVHTRGLDFACDIYIWAPLAGTCGVLLLSLVITLYCKRGRKKLLYIFKQPFMRPVQTTQEEDGCSCRFPEEEEGGCELRVKFSRSADAPAYKQGQNQLYNELNLGRREEYDVLDKRRGRDPEMGGKPRRKNPQEGLYNELQKDKMAEAYSEIGMKGERRRGKGHDGLYQGLSTATKDTYDALHMQALPPR
notes: Tandem bispecific chimeric antigen receptor on human T cells; built here from its parts without the signal peptide; also called TanCAR 05 CAR-T
For B4, in assay [1], the “lysis rate of CHO-K1-BCMA-luc cells by CAR-T cells, ratio 0.25:1” value was determined as 26.6%; the “lysis rate of CHO-K1-BCMA-luc cells by CAR-T cells, ratio 0.5:1” value was found to be 39.2%; the “lysis rate of CHO-K1-BCMA-luc cells by CAR-T cells, ratio 1:1” value was determined as 58.2%; the “lysis rate of CHO-K1-BCMA-luc cells by CAR-T cells, ratio 2:1” value is 79.8%. Moreover, in assay [2], the “lysis rate of Nalm6-luc cells by CAR-T cells, ratio 0.25:1” value amounted to 25.8%; the “lysis rate of Nalm6-luc cells by CAR-T cells, ratio 0.5:1” value amounted to 42.4%; the “lysis rate of Nalm6-luc cells by CAR-T cells, ratio 1:1” value was 67.7%; the “lysis rate of Nalm6-luc cells by CAR-T cells, ratio 2:1” value is 91.2%. Further, the “Positive rate of binding to CD19” value in the assay with human CD19 (antigen) came to 11.8%. Further, in the assay with human BCMA (antigen), the “Positive rate of binding to BCMA” value is 14.2%.
